Assay results taken from the supplement of paper PMC10567573.

B1: VDR (parent)
chain: LIKFQVGLKKLNLHEEEHVLLMAI

Variants of: B1
Assay: protein stability index of a GFP-peptide fusion (GPS, HEK-293T) (PSI 1-6); higher = more stable
Conditions: c terminus: a fixed tail appended
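Further: lentivirally expressed fusions sorted by FACS into six bins by GFP to DsRed ratio, PSI derived from sequencing read proportions per bin multiplied by bin number.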

Point of comparison: LIKFQPGLKKLNLHEEEHVLLMAI, protein stability index 2.85. Against it:
- LIKFQVGLKKLNLHEEEHNLLMAI — lower, 1.59
- LIKFQVGLKKLNLHEEEHDLLMAI — higher, 3.54
- LIKFQVGLKKLNLHEEEHFLLMAI — lower, 2.52
- LIKFQVGLKKLNLHEEEHHLLMAI — higher, 3.1
- LIKFQVGLKKLNLHEEEHRLLMAI — higher, 2.89
- LIKFQVGLKKLNLHEEEHGLLMAI — lower, 1.4
- LIKFQVGLKKLNLHEEEHILLMAI — lower, 1.93
- LIKFQVGLKKLNLHEEEHKLLMAI — lower, 1.99
- LIKFQVGLKKLNLHEEEHCLLMAI — lower, 1.63
- LIKFQVGLKKLNLHEEEHALLMAI — lower, 1.58
- LIKFQVGLKKLNLHEEEHWLLMAI — lower, 1.04
- LIKFQVGLKKLNLHEEEHTLLMAI — lower, 2.52
- LIKFQVGLKKLNLHEEEHQLLMAI — higher, 3.04
- LIKFQVGLKKRNLHEEEHVLLMAI — lower, 1.3
- LIKFQVGLKKMNLHEEEHVLLMAI — higher, 2.93
- LIKFQVGLKKANLHEEEHVLLMAI — lower, 2.56
- LIKFQVGLKKCNLHEEEHVLLMAI — higher, 3.35
- LIKFQVGLKKENLHEEEHVLLMAI — higher, 3.86
- LIKFQVGLKKPNLHEEEHVLLMAI — lower, 2.34
- LIKFQVGLKKWNLHEEEHVLLMAI — lower, 2.1
- LIKFQVGLKKFNLHEEEHVLLMAI — lower, 2.14
- LIKFQVGLKKDNLHEEEHVLLMAI — lower, 2.78
- LIKFQVGLKKINLHEEEHVLLMAI — higher, 3.2
- LIKFQVGLKKQNLHEEEHVLLMAI — lower, 2
- LIKFQVGLKKTNLHEEEHVLLMAI — lower, 2.03
- LIKFQVGLKKSNLHEEEHVLLMAI — lower, 2.29
- LIKFQVGLKKYNLHEEEHVLLMAI — lower, 2.28
- LIKFQVGLKKKNLHEEEHVLLMAI — higher, 2.98
- LIKFQVGLKDLNLHEEEHVLLMAI — higher, 3.4
- LIKFQVGLKNLNLHEEEHVLLMAI — lower, 1.9
- LIKFQVGLKLLNLHEEEHVLLMAI — higher, 4.27
- LIKFQVGLKCLNLHEEEHVLLMAI — higher, 4.27
- LIKFQVGLKALNLHEEEHVLLMAI — higher, 3.24
- LIKFQVGLKTLNLHEEEHVLLMAI — lower, 2.23
- LIKFQVGLKPLNLHEEEHVLLMAI — higher, 3.19
- LIKFQVGLKELNLHEEEHVLLMAI — lower, 2.11
- LIKFQVGLKMLNLHEEEHVLLMAI — lower, 2.47
- LIKFQVGLKFLNLHEEEHVLLMAI — higher, 3.36
- LIKFQVGLKHLNLHEEEHVLLMAI — lower, 1.38
- LIKFQVGLKVLNLHEEEHVLLMAI — lower, 1.83
- LIKFQVGLKKLNLHEENHVLLMAI — lower, 2.3
- LIKFQVGLKKLNLHEEYHVLLMAI — higher, 3.14
- LIKFQVGLKKLNLHEELHVLLMAI — lower, 1.8
- LIKFQVGLKKLNLHEEFHVLLMAI — lower, 1.95
- LIKFQVGLKKLNLHEEQHVLLMAI — lower, 2.7
- LIKFQVGLKKLNLHEEDHVLLMAI — lower, 2.28
- LIKFQVGLKKLNLHEEMHVLLMAI — lower, 2.37
- LIKFQVGLKKLNLHEERHVLLMAI — higher, 3.74
- LIKFQVGLKKLNLHEEHHVLLMAI — lower, 2.34
- LIKFQVGLKKLNLHEEPHVLLMAI — higher, 2.91
- LIKFQVGLVKLNLHEEEHVLLMAI — higher, 3.6
- LIKFQVGLHKLNLHEEEHVLLMAI — lower, 1.59
- LIKFQVGLMKLNLHEEEHVLLMAI — higher, 3.2
- LIKFQVGLRKLNLHEEEHVLLMAI — lower, 2.63
- LIKFQVGLDKLNLHEEEHVLLMAI — lower, 2.79
- LIKFQVGLLKLNLHEEEHVLLMAI — higher, 2.97
- LIKFQVGLPKLNLHEEEHVLLMAI — higher, 3.16
- LIKFQVGLQKLNLHEEEHVLLMAI — higher, 3.62
- LIKFQVGLCKLNLHEEEHVLLMAI — higher, 5.08
- LIKFQVGLIKLNLHEEEHVLLMAI — lower, 1.03
- LIKFQVGLFKLNLHEEEHVLLMAI — higher, 3.38
- LIKFQVGLGKLNLHEEEHVLLMAI — higher, 3.2
- LIKFQVGLSKLNLHEEEHVLLMAI — higher, 3.17
- LIKFQVGLAKLNLHEEEHVLLMAI — lower, 2.27
- LIKFQVGLTKLNLHEEEHVLLMAI — higher, 3.39
- LIKFQVGLNKLNLHEEEHVLLMAI — lower, 1.61
- LIKFQVGLYKLNLHEEEHVLLMAI — higher, 4.29
- LIKFQVGLKKLNLEEEEHVLLMAI — higher, 4.65
- LIKFQVGLKKLNLPEEEHVLLMAI — lower, 2.53
- LIKFQVGLKKLNLGEEEHVLLMAI — higher, 4.41
- LIKFQVGLKKLNLYEEEHVLLMAI — higher, 2.93
- LIKFQVGLKKLNLDEEEHVLLMAI — lower, 2.21
- LIKFQVGLKKLNLQEEEHVLLMAI — lower, 2.43
- LIKFQVGLKKLNLIEEEHVLLMAI — lower, 2.28
- LIKFQVGLKKLNLNEEEHVLLMAI — higher, 3.26
- LIKFQVGLKKLNLKEEEHVLLMAI — lower, 2.66
- LIKFQVGLKKLNLCEEEHVLLMAI — lower, 2.28
- LIKFQVGMKKLNLHEEEHVLLMAI — higher, 3.04
- LIKFQVGFKKLNLHEEEHVLLMAI — higher, 3.06
- LIKFQVGQKKLNLHEEEHVLLMAI — lower, 1.56
- LIKFQVGKKKLNLHEEEHVLLMAI — the same, 2.85
- LIKFQVGPKKLNLHEEEHVLLMAI — lower, 2.31
- LIKFQVGHKKLNLHEEEHVLLMAI — lower, 2.3
- LIKFQVGNKKLNLHEEEHVLLMAI — lower, 2.82
- LIKFQVGTKKLNLHEEEHVLLMAI — lower, 2.62
- LIKFQVGSKKLNLHEEEHVLLMAI — higher, 3.06
- LIKFQVGDKKLNLHEEEHVLLMAI — higher, 3.48
- LIKFQVGWKKLNLHEEEHVLLMAI — lower, 1.89
- LIKFQVGIKKLNLHEEEHVLLMAI — higher, 3.67
- LIKFQVGLKKLNLHEEEAVLLMAI — higher, 4.04
- LIKFQVGLKKLNLHEEEEVLLMAI — lower, 2.33
- LIKFQVGLKKLNLHEEETVLLMAI — lower, 1.12
- LIKFQVGLKKLNLHEEENVLLMAI — higher, 3.21
- LIKFQVGLKKLNLHEEEIVLLMAI — higher, 2.93
- LIKFQVGLKKLNLHEEEMVLLMAI — higher, 3.56
- LIKFQVGLKKLNLHEEEKVLLMAI — higher, 3.13
- LIKFQHGLKKLNLHEEEHVLLMAI — higher, 4.18
- LIKFQMGLKKLNLHEEEHVLLMAI — higher, 3.76
- LIKFQWGLKKLNLHEEEHVLLMAI — lower, 1.54
- LIKFQCGLKKLNLHEEEHVLLMAI — higher, 3.2
- LIKFQQGLKKLNLHEEEHVLLMAI — lower, 1.74
- LIKFQKGLKKLNLHEEEHVLLMAI — lower, 2.01
- LIKFQDGLKKLNLHEEEHVLLMAI — lower, 1.47
- LIKFQLGLKKLNLHEEEHVLLMAI — higher, 2.91
- LIKFQSGLKKLNLHEEEHVLLMAI — higher, 2.98
- LIKFQGGLKKLNLHEEEHVLLMAI — lower, 2.2
- LIKFQTGLKKLNLHEEEHVLLMAI — lower, 2.73
- LIKFQAGLKKLNLHEEEHVLLMAI — lower, 2.24
- LIKFQFGLKKLNLHEEEHVLLMAI — higher, 3.19
- LIKFQNGLKKLNLHEEEHVLLMAI — lower, 2.61
- LIKFPVGLKKLNLHEEEHVLLMAI — higher, 2.97
- LIKFDVGLKKLNLHEEEHVLLMAI — higher, 4.34
- LIKFNVGLKKLNLHEEEHVLLMAI — lower, 1.79
- LIKFWVGLKKLNLHEEEHVLLMAI — higher, 3.59
- LIKFKVGLKKLNLHEEEHVLLMAI — higher, 2.89
- LIKFFVGLKKLNLHEEEHVLLMAI — lower, 2.56
- LIKFHVGLKKLNLHEEEHVLLMAI — lower, 2.65
- LIKFLVGLKKLNLHEEEHVLLMAI — higher, 3.08
- LIKFVVGLKKLNLHEEEHVLLMAI — lower, 2.77
- LIKFQVGLKKLNLHEYEHVLLMAI — lower, 1.43
- LIKFQVGLKKLNLHEIEHVLLMAI — lower, 1.97
- LIKFQVGLKKLNLHEREHVLLMAI — lower, 2.24
- LIKFQVGLKKLNLHECEHVLLMAI — higher, 3.87
- LIKFQVGLKKLNLHEKEHVLLMAI — lower, 1.77
- LIKFQVGLKKLNLHEQEHVLLMAI — lower, 1.57
- LIKFQVGLKKLNLHELEHVLLMAI — higher, 3.15
- LIKFQVGLKKLNLHENEHVLLMAI — lower, 2.09
- LIKFQVGLKKLNLHETEHVLLMAI — lower, 2.81
- LIKFQVGLKKLNLHEPEHVLLMAI — higher, 3.81
- LIKFQVGLKKLILHEEEHVLLMAI — lower, 2.19
- LIKFQVGLKKLGLHEEEHVLLMAI — lower, 2.62
- LIKFQVGLKKLTLHEEEHVLLMAI — higher, 2.92
- LIKFQVGLKKLFLHEEEHVLLMAI — lower, 2.51
- LIKFQVGLKKLSLHEEEHVLLMAI — lower, 2.5
- LIKFQVGLKKLELHEEEHVLLMAI — higher, 3.9
- LIKFQVGLKKLNNHEEEHVLLMAI — higher, 3.72
- LIKFQVGLKKLNKHEEEHVLLMAI — higher, 3.2
- LIKFQVGLKKLNEHEEEHVLLMAI — lower, 1.4
- LIKFQVGLKKLNSHEEEHVLLMAI — higher, 3.54
- LIKFQVGLKKLNGHEEEHVLLMAI — lower, 1.88
- LIKFQVGLKKLNQHEEEHVLLMAI — higher, 3.27
- LIKFQVGLKKLNHHEEEHVLLMAI — lower, 2.3
- LIKFQVGLKKLNPHEEEHVLLMAI — lower, 2.73
- LIKFQVGLKKLNWHEEEHVLLMAI — lower, 2.81
- LIKFQVGLKKLNDHEEEHVLLMAI — lower, 1.74
- LIKFQVGLKKLNIHEEEHVLLMAI — lower, 2.39
- LIKFQVGLKKLNTHEEEHVLLMAI — higher, 3.36
- LIKFQVGLKKLNRHEEEHVLLMAI — higher, 3.69
- LIKFQVGLKKLNMHEEEHVLLMAI — higher, 3.14
- LIKFQVGLKKLNVHEEEHVLLMAI — higher, 3.02
- LIKFQVGLKKLNFHEEEHVLLMAI — lower, 1.7
- LIKMQVGLKKLNLHEEEHVLLMAI — lower, 1.75
- LIKQQVGLKKLNLHEEEHVLLMAI — lower, 2.09
- LIKPQVGLKKLNLHEEEHVLLMAI — lower, 1.31
- LIKSQVGLKKLNLHEEEHVLLMAI — higher, 3.39
- LIKYQVGLKKLNLHEEEHVLLMAI — lower, 2.64
- LIKNQVGLKKLNLHEEEHVLLMAI — higher, 4.44
- LIKWQVGLKKLNLHEEEHVLLMAI — lower, 1.5
- LIKRQVGLKKLNLHEEEHVLLMAI — lower, 2.72
- LIKTQVGLKKLNLHEEEHVLLMAI — lower, 1.48
- LIKFQVGLKKLNLHWEEHVLLMAI — higher, 3.87
- LIKFQVGLKKLNLHYEEHVLLMAI — lower, 1.94
- LIKFQVGLKKLNLHQEEHVLLMAI — lower, 2.77
- LIKFQVGLKKLNLHAEEHVLLMAI — lower, 2.52
- LIKFQVGLKKLNLHKEEHVLLMAI — lower, 2.5
- LIKFQVGLKKLNLHVEEHVLLMAI — lower, 2.61
- LIKFQVGLKKLNLHCEEHVLLMAI — lower, 1.99
- LIKFQVGLKKLNLHGEEHVLLMAI — higher, 2.92
- LIKFQVGLKKLNLHLEEHVLLMAI — higher, 3.71
- LIKFQVGLKKLNLHSEEHVLLMAI — higher, 2.96
- LIKFQVGLKKLNLHPEEHVLLMAI — lower, 2.38
- LIKFQVGLKKLNLHTEEHVLLMAI — higher, 3.96
- LIKFQVGLKKLNLHFEEHVLLMAI — lower, 2.77
- LIKFQVKLKKLNLHEEEHVLLMAI — lower, 2.84
- LIKFQVMLKKLNLHEEEHVLLMAI — higher, 3.9
- LIKFQVQLKKLNLHEEEHVLLMAI — higher, 3.23
- LIKFQVSLKKLNLHEEEHVLLMAI — lower, 2.46
- LIKFQVTLKKLNLHEEEHVLLMAI — lower, 2.82
- LIKFQVHLKKLNLHEEEHVLLMAI — higher, 3.58
- LIKFQVPLKKLNLHEEEHVLLMAI — lower, 1.3
- LIKFQVWLKKLNLHEEEHVLLMAI — higher, 3.47
- LIKFQVFLKKLNLHEEEHVLLMAI — lower, 1.75
- LIKFQVDLKKLNLHEEEHVLLMAI — lower, 2.61
- LIKFQVALKKLNLHEEEHVLLMAI — lower, 2.15
- LIKFQVLLKKLNLHEEEHVLLMAI — lower, 2.4
- LIKFQVCLKKLNLHEEEHVLLMAI — lower, 1.72
- LIKFQVYLKKLNLHEEEHVLLMAI — lower, 2.11
